T1: human BCMA on cells (human, UniProt Q02223 1-184)
T1 construct: whole, on cells; also called CHO-hBCMA cells; U266 cells
T1 sequence (looked up): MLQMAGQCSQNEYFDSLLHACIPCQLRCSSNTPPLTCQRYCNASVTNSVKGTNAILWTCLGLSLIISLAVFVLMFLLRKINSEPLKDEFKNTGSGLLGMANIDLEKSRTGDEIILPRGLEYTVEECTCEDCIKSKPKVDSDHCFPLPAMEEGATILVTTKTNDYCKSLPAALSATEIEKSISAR

T2: human TACI protein (human, UniProt O14836 2-166, limits assumed)
T2 sequence (looked up): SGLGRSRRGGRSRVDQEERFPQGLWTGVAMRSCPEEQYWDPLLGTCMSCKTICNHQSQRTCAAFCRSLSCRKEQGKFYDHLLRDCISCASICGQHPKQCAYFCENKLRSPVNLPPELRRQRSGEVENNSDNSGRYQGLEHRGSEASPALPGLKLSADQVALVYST

T3: human BCMA-His (ACRO, product catalog No. BCA-H522y) (human, UniProt Q02223 1-54, biotin-conjugated in the ELISAs of Examples 5 and 6.1 (site not stated))
T3 construct: Bought protein; also called BCMA-His protein; biotin-conjugated recombinant BCMA-His protein; not shown: His tag
T3 sequence (looked up): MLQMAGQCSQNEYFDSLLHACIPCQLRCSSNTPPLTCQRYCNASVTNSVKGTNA

T4: human BCMA protein (human, UniProt Q02223 1-54, limits assumed)
T4 construct: also called hBCMA; Antigen BCMA
T4 sequence (looked up): T3 sequence (looked up)

B1: 1A1-Fc (antibody, human IgG1, V domains shown)
VH: QVQLVESGGGSVQAGGSLRLSCTASGYTFRGWNKHWYRQAPGKERELVSSIFRDGKTAYTDSVKGRFTISQDNADATVYLQMNSLKPEDTAMYYCKYDLPGSGLPAFWGQGTLVTVSS
notes: Camel VHH fused to human IgG1 Fc; also called anti-human BCMA VHH-Fc chimeric antibody 1A1-Fc
B2: 1B10-Fc (antibody, human IgG1, V domains shown)
VH: B1 VH with Q1E, N73S, A106E
notes: Camel VHH fused to human IgG1 Fc; also called anti-human BCMA VHH-Fc chimeric antibody 1B10-Fc
B3: 1A11-Fc (antibody, human IgG1, V domains shown)
VH: QVQLVESGGGSVQAGGSLRLSCAASGVTFNSACMGWFRQAPGKEREGVARIETGYGGTVYADSVKGRFTISRDNAKNTVYLQMNSLKPEDTAMYYCAAKRSWCTPTWWHELDYNYWGQGTQVTVSS
notes: also called anti-human BCMA VHH-Fc chimeric antibody 1A11-Fc
B4: 1A10-Fc (antibody, human IgG1, V domains shown)
VH: QVQLVESGGGSVQAGGSLRLSCAASGYSSNVACMAWYRQAPGKEREWVATIVADFGTTNYAASVKGRFTISQDNAKNTVYLQMNSLKPEDSAMYYCAATQRGGIDWCDEINYWGQGTLVTVSS
notes: also called anti-human BCMA VHH-Fc chimeric antibody 1A10-Fc

Substitutions are numbered along the chain they refer to.

Chain of human BAFF-R protein (Q96RJ3 7-71 limits assumed): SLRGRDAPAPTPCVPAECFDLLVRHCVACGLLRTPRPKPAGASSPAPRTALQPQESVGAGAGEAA
Chain of cynomolgus monkey BCMA protein (A0A2K5UD97 entry or part of it limits assumed): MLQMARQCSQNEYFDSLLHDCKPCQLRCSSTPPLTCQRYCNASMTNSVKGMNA
T5 sequence (Q02223 other isoform, or with tags, fused parts or gaps): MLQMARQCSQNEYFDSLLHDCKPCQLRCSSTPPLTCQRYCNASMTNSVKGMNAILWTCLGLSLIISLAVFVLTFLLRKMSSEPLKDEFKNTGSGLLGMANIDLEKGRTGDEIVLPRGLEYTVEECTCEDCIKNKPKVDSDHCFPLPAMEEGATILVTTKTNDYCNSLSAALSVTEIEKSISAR

One assay addresses cynomolgus monkey BCMA protein (cynomolgus monkey, UniProt A0A2K5UD97 1-53). The experiment in a line: SPR (Biacore T200).
For the molecule B1, the binding result is given as “no binding”.
The same measure, in the same setting: the same measure for B2: “no binding”.

The target of a further assay is T1, human BCMA on cells. Put plainly: flow cytometry, U266 cells. The text has this:
(§1) The binding of the anti-human BCMA VHH-Fc chimeric antibodies to target cells with different BCMA expression levels was detected by flow cytometry. The CHO-hBCMA cells (iCarTab Biotechnology (Suzhou) Co. Ltd., product catalog No. AKD001A) were a stably transfected cell line highly expressing BCMA. The U266 cells (Cell Culture Center, Institute of Basic Medical Sciences, Chinese Academy of Medical Sciences, product catalog No. 3111C0001CCC000684) were a natural human myeloma cell line expressing BCMA at medium levels. The PRMI8226 cells (Cell Culture Center, Institute of Basic Medical Sciences, Chinese Academy of Medical Sciences, product catalog No. 3111C0001CCC000083) were a natural human myeloma cell line expressing BCMA at low levels. The HUVEC cells (ScienCell Research Laboratories, product catalog No. […] 8000) were a human umbilical vein endothelial cell line not expressing BCMA. […] A PE-labeled anti-human IgG Fc antibody (Jackson Immuno Rescarch, product catalog No. 109-116-170) was added, and the mixture was incubated on ice for 0.5 h. The cells were washed and then tested using a flow cytometer (Thermo Fisher Scientific Inc., Attune NXT).
A general note: In flow cytometry, cells or beads pass a laser one at a time.
In general, EC50 refers to the concentration that produces a half-maximal response. As to B3, it took 1.26 nM to reach a half-maximal effect (EC50).
B1: the midpoint of the response, the EC50, lay at 2.77 nM.
Still for that read-out and setting: as for B2, the figure is 1.72 nM; as for B4, 4.64 nM.

The target of the next assay is T1, human BCMA on cells. The experiment in a line: flow cytometry, CHO-hBCMA cells.
Text: as §1
B3 gave an EC50 of 2.08 nM.
Same read-out and setting: the same measure for B1: 3.04 nM.
In the case of B2, the EC50 was found to be 2.51 nM.
On the same count and under the same terms, as for B4, the figure is 4.28 nM.

Another assay addresses T2, human TACI protein. The experiment in a line: SPR (Biacore T200), antibody captured by anti-hIgG (Fc). The method, then: (§2) The anti-human BCMA VHH-Fc chimeric antibodies were tested for specificity using a biomolecular interaction analysis system (GE, Biacore T200). An anti-hIgG (Fc) antibody (GE, product catalog No. BR-1008-39) was amino-coupled to a CM5 sensor chip. The anti-human BCMA VHH-Fc chimeric antibodies were diluted to 2 μg/mL with a running buffer (137 mM NaCl, 2.7 mM KCl, 10 mM Na₂HPO₄.12H₂O, 1.8 mM KH₂PO₄, 0.05% surfactant P-20 (w/v), pH 7.4), and capture was allowed for 90 s by passing the dilutions through experimental channels at a flow rate of 30 μL/min. Human TACI or BAFF-R protein was diluted to 100 nM with the running buffer, and binding was allowed by passing the dilution at a flow rate of 50 μL/min. The binding signal curve was observed.
For orientation: Surface plasmon resonance follows binding to a sensor surface in real time, without labels.
As to B3, the binding result was “no binding (tested: 100 nM)”.
B1: the binding result is “no binding (tested: 100 nM)”.
Turning to B2, the binding result is listed as “no binding (tested: 100 nM)”.
Turning to B4, the binding result is reported as “no binding (tested: 100 nM)”.

The next assay addresses human BAFF-R protein (human, UniProt Q96RJ3 7-71, limits assumed). The assay is described as above. The procedure: as §2
On to B3, for which the binding result was “no binding (tested: 100 nM)”.
As for B1, the binding result was “no binding (tested: 100 nM)”.
For the molecule B2, the binding result is “no binding (tested: 100 nM)”.
As to B4, the binding result was “no binding (tested: 100 nM)”.

The next assay addresses T3, human BCMA-His (ACRO, product catalog …). The experiment in a line: competition ELISA (chessboard), biotin-BCMA-His; competitor: 1A1-Fc. The procedure: (§3) The anti-human BCMA VHH-Fc chimeric antibodies were diluted to 2 μg/mL and allowed to coat a high-adsorption microplate. The plate was washed and then blocked. […] According to a chessboard arrangement, the incubated mixtures of antigen and antibody or the biotin-conjugated BCMA-His protein alone (control group) were added in sequence to the well plate at 100 μL/well. The plate was incubated at 37° C. for 1 h. The plate was washed to remove unbound biotin-conjugated recombinant BCMA-His protein. HRP-conjugated streptavidin (eBioscience, product catalog No. 18-4100-51) was added, and the plate was washed 5 times and then subjected to color development. The light absorption signal values at the wavelength of 450 nm and the reference wavelength of 650 nm were measured. The blocking rate of one antibody for the binding signal of another antibody to BCMA-Bio was calculated according to the formula blocking rate=(signal value of control group−signal value of sample group)/signal value of control group×100%. Positive control groups in which antibodies competed with themselves are shown on the diagonal line “\” of the chessboard (indicated in gray).
(In general: ELISA stands for enzyme-linked immunosorbent assay.)
With B3, the blocking rate turned out to be 101%.
B2 yielded a blocking rate of 100%.
B4: the blocking rate was determined as 36.9%.

A further assay shares this target. Put plainly: competitive ELISA: antibody blocks binding of biotin-BCMA-His to coated APRIL. The method, then:
The plate was incubated at 37° C. for 1 h and then washed to remove unbound biotin-conjugated recombinant BCMA-His protein. HRP-conjugated streptavidin (eBioscience, product catalog No. 18-4100-51) was added, and the plate was washed 5 times and then subjected to color development. The light absorption signal values at the wavelength of 450 nm and the reference wavelength of 650 nm were measured.
Usually IC50 stands for the point on the concentration scale where inhibition reaches its midpoint. B3: the IC50 was found to be 0.76 nM.
B1 returned an IC50 of 0.34 nM.
B2 yielded an IC50 of 0.26 nM.
On the same count and under the same terms, as for B4, the figure is 0.41 nM.

The next assay has the same target. Put plainly: competition ELISA (chessboard), biotin-BCMA-His; competitor: 1A10-Fc. The method, then: as §3
In the case of B3, the blocking rate came to 21.6%.
Same read-out and setting: the same measure for B1: 7.6%.
The molecule B2 registered a blocking rate of 26.7%.

For the next assay the target is unchanged. Put plainly: competition ELISA (chessboard), biotin-BCMA-His; competitor: 1A11-Fc. The procedure: as §3
As for B1, the blocking rate was 99.4%.
B2 had a blocking rate of 99.5%.
B4 registered a blocking rate of 32.6%.

Another assay has the same target. The experiment in a line: competition ELISA (chessboard), biotin-BCMA-His; competitor: 1B10-Fc. The procedure:
as §3
B3 displayed a blocking rate of 99.4%.
The same measure, in the same setting: as for B1, the figure is 101%.
Same read-out and setting: as for B4, the figure is 46.4%.

Another assay addresses T5, cynomolgus monkey BCMA on transiently transfected HEK293T cells (cynomolgus monkey, UniProt Q02223 1-184 (human entry)).
T5 construct: it may be a nucleotide entry; also called HEK293T-CynoBCMA
The experiment in a line: flow cytometry, HEK293T cells transiently transfected with cynomolgus monkey BCMA. From the text:
The cells were washed and then tested using a flow cytometer (Thermo Fisher Scientific Inc., Attune NXT).
B3 registered an EC50 of 10.4 nM.
Same read-out and setting: as for B4, the figure is 2.02 nM.

The target of the next assay is T4, human BCMA protein. Put plainly: SPR (Biacore T200), antibody captured by anti-hIgG, human BCMA as analyte, 1:1 model. The method, then: The affinity of the test antibody for human BCMA protein was determined by Biacore T200 (GE) as follows:
The response signals were detected in real time using Biacore software, and association and dissociation curves were obtained. The buffer used in the experiment was Biacore universal buffer (137 mM NaCl, 2.7 mM KCl, 10 mM Na₂HPO₄.12H₂O, 1.8 mM KH₂PO₄, 0.05% surfactant P-20 (w/v), pH 7.4). […] The flow rate in the flow cell was at 50 μL/min, the association was performed for 240 s, the dissociation was performed for 1400 s, the regeneration was performed using 3 M MgCl₂ (GE) for 60 s, and the baseline was stable. Results were obtained by calculation according to the affinity and kinetics 1:1 binding mode in biacore evaluation software.
In general, Kd refers to the constant that tells how readily two partners part at equilibrium. B3 showed a Kd of 3.96 nM.
Turning to B4, the dissociation constant Kd worked out at 0.94 nM.

The values are drawn from US20240182592A1 (CHIA TAI TIANQING PHARMACEUTICAL GROUP, published 2024).
